From patent US20150344570A1 (published 2015)

B1: H240-Kn192/H240-Hl204/L73-k0 (antibody, human IgG1, kappa)
heavy 1: QDQLVQSGAEVKKPGASVKVSCKASGFNIKDTYIQWVRQAPGQGLEWMGRIDPLRKQTKYREKFEGRVTITADTSTNTAYMELSSLRSEDTAVYYCVRSGREFDYWGQGTLVTVSSASTKGPSVFPLAPSSKSTSGGTAALGCLVKDYFPEPVTVSWNSGALTSGVHTFPAVLQSSGLYSLSSVVTVPSSSLGTQTYICNVNHKPSNTKVDKKVEPKSCDKTHTCPPCPAPEYNWGPMVFLFPPKPKDTLMISRTPEVTCVVVDVSDEDPEVKFNWYVDGVEVHNAKTKPREKQYNATYRVVSVLTVLHQDWLNGKEYKCKVSNKDLPAPIEKTISKAKGQPREPQVCTLPPSRDELTKNQVSLWCLVKGFYPSDIAVEWESNGQPENNYKTTPPVLDSDGSFFLYSKLTVDKSRWQQGNVFSCSVMHEALHNHYTQKSLSLSP
heavy 2: QDQLVQSGAEVKKPGASVKVSCKASGFNIKDTYIQWVRQAPGQGLEWMGRIDPLRKQTKYREKFEGRVTITADTSTNTAYMELSSLRSEDTAVYYCVRSGREFDYWGQGTLVTVSSASTKGPSVFPLAPSSKSTSGGTAALGCLVKDYFPEPVTVSWNSGALTSGVHTFPAVLQSSGLYSLSSVVTVPSSSLGTQTYICNVNHKPSNTKVDKKVEPKSCDKTHTCPPCPAPELLTGPSVFLFPPKPKDTLMISRTPEVTCVVVDVSHEEPEVKFNWYVDGVEVHNAKTKPREEQYNSTYRVVSVLTVLHQDWLNGKEYKCKVSNDALPKPEEETISKAKGQPREPQVYTLPPSRCELTKNQVSLSCAVKGFYPSDIAVEWESNGQPENNYKTTPPVLDSDGSFFLVSKLTVDKSRWQQGNVFSCSVMHEALHNHYTQKSLSLSP
light: DIQMTQSPSSLSASVGDRVTITCRASQDIHKYIAWYQQKPGQAPRLLIQYTSTLQPGVPSRFSGSGSGTDYTFTISSLQPEDIATYYCLQYEQLRTFGGGTKVEIKRTVAAPSVFIFPPSDEQLKSGTASVVCLLNNFYPREAKVQWKVDNALQSGNSQESVTEQDSKDSTYSLSSTLTLSKADYEKHKVYACEVTHQGLSSPVTKSFNRGEC
notes: Y235N and E294K in H240-Kn120; G236T and I332E in H240-Hl068; also called H240-Kn192/H240-HI204/L73-k0
B2: H240-Kn208/H240-Hl076/L73-k0 (antibody, human IgG1, kappa)
heavy 1: QDQLVQSGAEVKKPGASVKVSCKASGFNIKDTYIQWVRQAPGQGLEWMGRIDPLRKQTKYREKFEGRVTITADTSTNTAYMELSSLRSEDTAVYYCVRSGREFDYWGQGTLVTVSSASTKGPSVFPLAPSSKSTSGGTAALGCLVKDYFPEPVTVSWNSGALTSGVHTFPAVLQSSGLYSLSSVVTVPSSSLGTQTYICNVNHKPSNTKVDKKVEPKSCDKTHTCPPCPAPEDQWGPMVFLFPPKPKDTLMISRTPEVTCVVVDVSDEEPEVKFNWYVDGVEVHNAKTKPREEQYNATYRVVSVLTVLHQDWLNGKEYKCKVSNKALPAPIEKTISKAKGQPREPQVCTLPPSRDELTKNQVSLWCLVKGFYPSDIAVEWESNGQPENNYKTTPPVLDSDGSFFLYSKLTVDKSRWQQGNVFSCSVMHEALHNHYTQKSLSLSP
heavy 2: QDQLVQSGAEVKKPGASVKVSCKASGFNIKDTYIQWVRQAPGQGLEWMGRIDPLRKQTKYREKFEGRVTITADTSTNTAYMELSSLRSEDTAVYYCVRSGREFDYWGQGTLVTVSSASTKGPSVFPLAPSSKSTSGGTAALGCLVKDYFPEPVTVSWNSGALTSGVHTFPAVLQSSGLYSLSSVVTVPSSSLGTQTYICNVNHKPSNTKVDKKVEPKSCDKTHTCPPCPAPELLGGPSVFLFPPKPKDTLMISRTPEVTCVVVDVSHEEPEVKFNWYVDGVEVHNAKTKPREEQYNSTYRVVSVLTVLHQDWLNGKEYKCKVSNDALPMPIEETISKAKGQPREPQVYTLPPSRCELTKNQVSLSCAVKGFYPSDIAVEWESNGQPENNYKTTPPVLDSDGSFFLVSKLTVDKSRWQQGNVFSCSVMHEALHNHYTQKSLSLSP
light: DIQMTQSPSSLSASVGDRVTITCRASQDIHKYIAWYQQKPGQAPRLLIQYTSTLQPGVPSRFSGSGSGTDYTFTISSLQPEDIATYYCLQYEQLRTFGGGTKVEIKRTVAAPSVFIFPPSDEQLKSGTASVVCLLNNFYPREAKVQWKVDNALQSGNSQESVTEQDSKDSTYSLSSTLTLSKADYEKHKVYACEVTHQGLSSPVTKSFNRGEC
B3: H240-Kn193/H240-Hl204/L73-k0 (antibody, human IgG1, kappa)
heavy 1: QDQLVQSGAEVKKPGASVKVSCKASGFNIKDTYIQWVRQAPGQGLEWMGRIDPLRKQTKYREKFEGRVTITADTSTNTAYMELSSLRSEDTAVYYCVRSGREFDYWGQGTLVTVSSASTKGPSVFPLAPSSKSTSGGTAALGCLVKDYFPEPVTVSWNSGALTSGVHTFPAVLQSSGLYSLSSVVTVPSSSLGTQTYICNVNHKPSNTKVDKKVEPKSCDKTHTCPPCPAPEYNWGPMVFLFPPKPKDTLMISRTPEVTCVVVDVSDEDPEVKFNWYVDGVEVHNAKTKPRERQYNATYRVVSVLTVLHQDWLNGKEYKCKVSNKDLPAPIEKTISKAKGQPREPQVCTLPPSRDELTKNQVSLWCLVKGFYPSDIAVEWESNGQPENNYKTTPPVLDSDGSFFLYSKLTVDKSRWQQGNVFSCSVMHEALHNHYTQKSLSLSP
heavy 2: QDQLVQSGAEVKKPGASVKVSCKASGFNIKDTYIQWVRQAPGQGLEWMGRIDPLRKQTKYREKFEGRVTITADTSTNTAYMELSSLRSEDTAVYYCVRSGREFDYWGQGTLVTVSSASTKGPSVFPLAPSSKSTSGGTAALGCLVKDYFPEPVTVSWNSGALTSGVHTFPAVLQSSGLYSLSSVVTVPSSSLGTQTYICNVNHKPSNTKVDKKVEPKSCDKTHTCPPCPAPELLTGPSVFLFPPKPKDTLMISRTPEVTCVVVDVSHEEPEVKFNWYVDGVEVHNAKTKPREEQYNSTYRVVSVLTVLHQDWLNGKEYKCKVSNDALPKPEEETISKAKGQPREPQVYTLPPSRCELTKNQVSLSCAVKGFYPSDIAVEWESNGQPENNYKTTPPVLDSDGSFFLVSKLTVDKSRWQQGNVFSCSVMHEALHNHYTQKSLSLSP
light: DIQMTQSPSSLSASVGDRVTITCRASQDIHKYIAWYQQKPGQAPRLLIQYTSTLQPGVPSRFSGSGSGTDYTFTISSLQPEDIATYYCLQYEQLRTFGGGTKVEIKRTVAAPSVFIFPPSDEQLKSGTASVVCLLNNFYPREAKVQWKVDNALQSGNSQESVTEQDSKDSTYSLSSTLTLSKADYEKHKVYACEVTHQGLSSPVTKSFNRGEC
notes: Y235N and E294R in H240-Kn120; G236T and I332E in H240-Hl068; also called H240-Kn193/H240-HI204/L73-k0
B4: H240-Kn201/H240-Hl076/L73-k0 (antibody, human IgG1, kappa)
heavy 1: QDQLVQSGAEVKKPGASVKVSCKASGFNIKDTYIQWVRQAPGQGLEWMGRIDPLRKQTKYREKFEGRVTITADTSTNTAYMELSSLRSEDTAVYYCVRSGREFDYWGQGTLVTVSSASTKGPSVFPLAPSSKSTSGGTAALGCLVKDYFPEPVTVSWNSGALTSGVHTFPAVLQSSGLYSLSSVVTVPSSSLGTQTYICNVNHKPSNTKVDKKVEPKSCDKTHTCPPCPAPEFQWGPMVFLFPPKPKDTLMISRTPEVTCVVVDVSDEEPEVKFNWYVDGVEVHNAKTKPREEQYNATYRVVSVLTVLHQDWLNGKEYKCKVSNKALPAPIEKTISKAKGQPREPQVCTLPPSRDELTKNQVSLWCLVKGFYPSDIAVEWESNGQPENNYKTTPPVLDSDGSFFLYSKLTVDKSRWQQGNVFSCSVMHEALHNHYTQKSLSLSP
heavy 2: QDQLVQSGAEVKKPGASVKVSCKASGFNIKDTYIQWVRQAPGQGLEWMGRIDPLRKQTKYREKFEGRVTITADTSTNTAYMELSSLRSEDTAVYYCVRSGREFDYWGQGTLVTVSSASTKGPSVFPLAPSSKSTSGGTAALGCLVKDYFPEPVTVSWNSGALTSGVHTFPAVLQSSGLYSLSSVVTVPSSSLGTQTYICNVNHKPSNTKVDKKVEPKSCDKTHTCPPCPAPELLGGPSVFLFPPKPKDTLMISRTPEVTCVVVDVSHEEPEVKFNWYVDGVEVHNAKTKPREEQYNSTYRVVSVLTVLHQDWLNGKEYKCKVSNDALPMPIEETISKAKGQPREPQVYTLPPSRCELTKNQVSLSCAVKGFYPSDIAVEWESNGQPENNYKTTPPVLDSDGSFFLVSKLTVDKSRWQQGNVFSCSVMHEALHNHYTQKSLSLSP
light: DIQMTQSPSSLSASVGDRVTITCRASQDIHKYIAWYQQKPGQAPRLLIQYTSTLQPGVPSRFSGSGSGTDYTFTISSLQPEDIATYYCLQYEQLRTFGGGTKVEIKRTVAAPSVFIFPPSDEQLKSGTASVVCLLNNFYPREAKVQWKVDNALQSGNSQESVTEQDSKDSTYSLSSTLTLSKADYEKHKVYACEVTHQGLSSPVTKSFNRGEC
B5: H240-Kn202/H240-Hl076/L73-k0 (antibody, human IgG1, kappa)
heavy 1: QDQLVQSGAEVKKPGASVKVSCKASGFNIKDTYIQWVRQAPGQGLEWMGRIDPLRKQTKYREKFEGRVTITADTSTNTAYMELSSLRSEDTAVYYCVRSGREFDYWGQGTLVTVSSASTKGPSVFPLAPSSKSTSGGTAALGCLVKDYFPEPVTVSWNSGALTSGVHTFPAVLQSSGLYSLSSVVTVPSSSLGTQTYICNVNHKPSNTKVDKKVEPKSCDKTHTCPPCPAPEEQWGPMVFLFPPKPKDTLMISRTPEVTCVVVDVSDEEPEVKFNWYVDGVEVHNAKTKPREEQYNATYRVVSVLTVLHQDWLNGKEYKCKVSNKALPAPIEKTISKAKGQPREPQVCTLPPSRDELTKNQVSLWCLVKGFYPSDIAVEWESNGQPENNYKTTPPVLDSDGSFFLYSKLTVDKSRWQQGNVFSCSVMHEALHNHYTQKSLSLSP
heavy 2: QDQLVQSGAEVKKPGASVKVSCKASGFNIKDTYIQWVRQAPGQGLEWMGRIDPLRKQTKYREKFEGRVTITADTSTNTAYMELSSLRSEDTAVYYCVRSGREFDYWGQGTLVTVSSASTKGPSVFPLAPSSKSTSGGTAALGCLVKDYFPEPVTVSWNSGALTSGVHTFPAVLQSSGLYSLSSVVTVPSSSLGTQTYICNVNHKPSNTKVDKKVEPKSCDKTHTCPPCPAPELLGGPSVFLFPPKPKDTLMISRTPEVTCVVVDVSHEEPEVKFNWYVDGVEVHNAKTKPREEQYNSTYRVVSVLTVLHQDWLNGKEYKCKVSNDALPMPIEETISKAKGQPREPQVYTLPPSRCELTKNQVSLSCAVKGFYPSDIAVEWESNGQPENNYKTTPPVLDSDGSFFLVSKLTVDKSRWQQGNVFSCSVMHEALHNHYTQKSLSLSP
light: DIQMTQSPSSLSASVGDRVTITCRASQDIHKYIAWYQQKPGQAPRLLIQYTSTLQPGVPSRFSGSGSGTDYTFTISSLQPEDIATYYCLQYEQLRTFGGGTKVEIKRTVAAPSVFIFPPSDEQLKSGTASVVCLLNNFYPREAKVQWKVDNALQSGNSQESVTEQDSKDSTYSLSSTLTLSKADYEKHKVYACEVTHQGLSSPVTKSFNRGEC

How the values were obtained:
[1] = target: FcγRIIIa F (human, UniProt P08637 17-208); assay: SPR (Biacore), KD
Chain of FcγRIIIa F (P08637 17-208): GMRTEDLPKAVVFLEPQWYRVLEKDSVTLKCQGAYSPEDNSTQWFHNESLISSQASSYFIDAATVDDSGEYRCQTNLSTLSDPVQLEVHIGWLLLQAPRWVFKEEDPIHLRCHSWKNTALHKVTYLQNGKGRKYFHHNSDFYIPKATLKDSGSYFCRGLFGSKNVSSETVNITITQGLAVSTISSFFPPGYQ

[2] = target: FcγRIIIa V (human, UniProt P08637 17-208); assay: SPR (Biacore), KD
Chain of FcγRIIIa V (P08637 17-208): as above

| Binder | fold binding against the variant before introduction of I332E and Y235N [1] | fold binding against the variant before introduction of I332E and Y235N [2] | fold binding activity against H240-Kn033/H240-Hl033/L73-k0 [1] | fold binding activity against H240-Kn033/H240-Hl033/L73-k0 [2] |
| --- | --- | --- | --- | --- |
| B1 | 2 times | 8 times |  |  |
| B2 |  |  | ≥ 100 fold | ≥ 100 fold |
| B3 | 2 times | 8 times |  |  |
| B4 |  |  | ≥ 100 fold | ≥ 100 fold |
| B5 |  |  | ≥ 100 fold | ≥ 100 fold |
